Source: patent US20240199758A1, “METHOD FOR ALLOWING IMMUNE CELLS INFILTRATION IN TUMORS” (Alethia Biotherapeutics Inc., priority 2021, published 2024)
Several values for one entry are separate records, joined by “and”; a condition that tells them apart may be missing. Equal entries are not always repeated. Entries after “also recorded” stand apart in the source; their conditions may differ.

What was measured:
Type in all cases: in vivo, Balb/c mice
[1] = test system: 4T1 mouse mammary carcinoma cells; assay: 4T1 model: number of metastatic lung nodules; conditions: Day 37
Method: (§1) Five groups, each consisting of 10 female Balb/c mice were assigned to this study (see Table 5 below). All animals received subcutaneous implantation of 4T1 mouse mammary carcinoma cells in the 4th inguinal mammary gland. Treatment was initiated on the day of implantation (defined as Day 1). Animals from Group 1 (Gr. 1) received IP treatment of saline vehicle control twice a week for the duration of the study. Animals from Group 2 (Gr. 2) received 10 mg/kg of docetaxel weekly for five weeks by IP administration. Animals from Group 3 (Gr. 3) received 10 mg/kg of docetaxel weekly for two weeks and 10 mg/kg of AB-16B5, twice weekly for five weeks. Animals from Group 4 (Gr. 4) received 10 mg/kg of docetaxel weekly and 5 mg/kg of 16B5 twice weekly each over the course of a five weeks treatment. Animals from Group 5 (Gr. 5) received AB-16B5 twice weekly for five weeks. On Day 36, the primary tumors were excised and on Day 37, the animals were sacrificed and the number of grossly visible metastatic nodules on the surface of the lungs was counted.

[2] = test system: 4T1 primary tumors; assay: 4T1 model: CD45+ immune cells in primary tumors
Method: as §1
The primary tumors excised at Day 16 post implantation, were processed with collagenase and hyaluronidase and immune cells were purified by positive selection using magnetic latex beads coated with an anti-CD45 antibody. […]

[3] = test system: 4T1 lung metastases; assay: 4T1 orthotopic model: immunohistochemistry of lung metastases
Description: Balb/c mice were orthotopically implanted with 5×10^5 4T1 cells in the 4′ mammary fat pad. Animals received IP saline treatment thrice weekly. The primary tumor was surgically removed at Day 16 post-implantation. The animals were sacrificed at Day 36 and the lungs were excised. Tissues were fixed in paraformaldehyde and processed for paraffin embedding. Tissue sections were probed with anti-mouse CD3, anti-mouse CD8 and anti-mouse B220 antibodies. […] Results presented in FIG. 1 indicate that the 4T1 lung metastases create an immune cold microenvironment which prevents the infiltration of B and T lymphocytes in tumors. Delineated regions indicate that CD3 and CD8 T lymphocytes are restricted in the tumor margin as a consequence of EMT.
Animals bearing 4T1 tumors were treated with the AB-16B5 antibody (murine 16B5) thrice a week IP at 10 mg/kg. The primary tumor was surgically removed at Day 16 post-implantation. The animals were sacrificed at Day 36 and the lungs were excised. Tissues were fixed in paraformaldehyde and processed for paraffin embedding. Tissue sections were probed with anti-mouse CD3, anti-mouse CD8 and anti-mouse B220 antibodies.

[4] = test system: 4T1 tumor cells; assay: INFγ secretion of tumor infiltrating lymphocytes co-cultured with 4T1 cells (ELISA)
Method: (§2) Balb/c mice were orthotopically implanted with 5×10^5 4T1 cells in the 4′ mammary fat pad. Animals received intraperitoneal (IP) AB-16B5 (murine 16B5) 10 mg/kg twice weekly in combination with IP docetaxel 10 mg/kg weekly (Group 15: animals 1501, 1502 and 1503) or IP AB-16B5 10 mg/kg twice weekly (Group 25: […]). The primary tumor was surgically removed at Day 16 post-implantation. The animals were sacrificed at Day 36 and the lungs were excised and each visible lung metastasis was carefully dissected. Each visible metastatic nodule, if any, was excised and processed for a rapid expansion of tumor infiltrating lymphocyte protocol. The metastatic nodules were sectioned into small pieces of 2-3 mm edge that were individually grown in 24 well plates containing culture medium supplemented with FBS, IL2, IL7, ITS (1,000 U/mL IL2, 2.0 ng/mL IL7 and 1× insulin—transferrin—selenium cocktail (Gibco 41400-045)).
After three weeks in culture, 100,000 cells were taken from each of the lymphocyte cultures (six cultures corresponding to three animals from Group 15 and three animals from Group 25) and placed in culture with 100,000 4T1 tumor cells. After overnight co-culture, the supernatant was recovered for INFγ quantification by ELISA.

[5] = test system: 4T1 lung metastases; assay: Flow cytometry immunophenotyping of lymphocytes from 4T1 lung metastases; conditions: Day 36 post-implantation, FIG. 4A and FIG. 4B
Method: as §2
The lymphocytes were stimulated with anti-CD3 and anti-CD28 monoclonal antibodies. Lymphocytes from each donor animal were pooled and processed for flow cytometry analysis with antibodies against CD45 (lymphocyte common antigen), CD3, CD4, CD8 and CD19 (B-cell biomarker) (FIG. 4A and FIG. 4B). The resulting single cell preparations were initially selected on their size to select those corresponding to immune cells. […]

[6] = 10 mg/kg IP thrice a week, Day 36

Molecule | metastatic lung nodules ([1]; Group 2: docetaxel 10 mg/kg IP 1X/week for 5 weeks) | CD45+ immune cells in primary tumors ([2]; Group 2: docetaxel 10 mg/kg IP 1X/week) | infiltration of lung metastases with CD3 and CD8 T cells [3, 6] | plasmocytes penetration in tumors [3, 6] | lung metastases, number and size ([3]; 10 mg/kg IP thrice a week, primary tumor removed Day 16, sacrifice Day 36) | B and T lymphocytes infiltration in 4T1 lung metastases ([3]; FIG. 2A) | metastatic lung nodules ([1]; Group 5: AB-16B5 10 mg/kg IP 2X/week for 5 weeks) | CD45+ immune cells in primary tumors ([2]; Group 5: AB-16B5 10 mg/kg IP 2X/week) | INFγ ([4]; Group 25 (samples 2501-2503, one value per animal): AB-16B5 10 mg/kg IP twice weekly, overnight co-culture with 4T1 cells) | INFγ secretion level of lymphocytes isolated from lung metastatic nodules ([4]; in the presence of 4T1 cells) | infiltration of 4T1 lung metastases by B and T lymphocytes [5]
CC(=O)O[C@@]12CO[C@@H]1C[C@H](O)[C@@]1(C)C(=O)[C@H](O)C3=C(C)[C@@H](OC(=O)[C@H](O)[C@@H](NC(=O)OC(C)(C)C)c4ccccc4)C[C@@](O)([C@@H](OC(=O)c4ccccc4)[C@H]21)C3(C)C [docetaxel] | as many metastatic lung nodules as the saline control group; also recorded: relatively ineffective | very few CD45+ were present | – | – | – | – | – | – | – | – | –
murine 16B5: murine anti-clusterin (anti-sCLU) monoclonal antibody 16B5 used in the mouse studies; VL SEQ ID NO:7, VH SEQ ID NO:8 (antibody, V domains shown, Murine 16B5 VH; Murine 16B5 VL) VH: EVQLQQSGAELVKPGASVRLSCTTSGFNIKDIYMHWVKQRPEQGLEWIGRIDPAYGNTKYDPKFQGKATITADTSSNTAYLQLSSLTSEDTAVYYCARRYDTAMDYWGQGTSVTVSS VL: DIVMSQSPSSLAVSAGEKVTMSCKSSQSLLNSRTRKNYLAWYQQKPGQSPKLLIYWASTRESGVPDRFTGSGSGTDFTLTISSVQAEDLAVYYCKQSYNLWTFGGGTKLEFK | – | – | densely infiltrated with CD3 and CD8 T cells | evidence of plasmocytes penetration | fewer and much smaller lung metastases | Results in B (B220) and T (CD3, CD4, CD8) Lymphocytes Infiltration | less metastatic lung nodules than the saline-control-treated mice | more immune cells | 8538.8 pg/mL and 3770.0 pg/mL and 4538.8 pg/mL | high levels | infiltrated by B and T lymphocytes
